Earlier results as cited in publication PMC6844576.

Target: IL-6 receptor (Homo sapiens) (UniProt P08887)
Test: 125I-rhIL-6 radioligand binding

Sequence of UniProt P08887 (P08887 20-365): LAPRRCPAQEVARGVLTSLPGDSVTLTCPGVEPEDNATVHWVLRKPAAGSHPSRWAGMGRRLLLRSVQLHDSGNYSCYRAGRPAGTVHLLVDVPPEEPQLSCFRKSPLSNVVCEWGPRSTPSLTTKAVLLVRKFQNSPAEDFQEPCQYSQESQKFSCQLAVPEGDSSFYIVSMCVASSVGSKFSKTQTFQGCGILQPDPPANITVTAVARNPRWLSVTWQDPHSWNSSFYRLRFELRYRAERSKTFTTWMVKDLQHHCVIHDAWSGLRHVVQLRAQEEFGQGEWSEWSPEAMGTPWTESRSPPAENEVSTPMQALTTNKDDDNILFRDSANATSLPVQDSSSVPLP

For interleukin-6 (from UniProt P05231), the Kd is listed as 0.44 nM.
